Test results from patent publication US20120070434A1.
Like-named read-outs stand apart in the source and are kept apart here.

B1: HC+LC-TPO antibody (antibody)
heavy: QVQLVQSGAEVKKPGASVKVSCKASGYTFTYYAMHWVRQAPGQRPEWMGWINGGDGKTKYAQKFQGRLAITRDTSARTAYMELISLTSEDTAVYYCAKGAEMTVGSWGPGTLVTVSSASTKGPSVFPLAPCSRSTSESTAALGCLVKDYFPEPVTVSWNSGALTSGVHTFPAVLQSSGLYSLSSVVTVPSSNFGTQTYTCNVDHKPSNTKVDKTVERKCCVECPPCPAPPVANPIEGPTLRQWLAARARGGPSVFLFPPKPKDTLMISRTPEVTCVVVDVSQEDPEVQFNWYVDGVEVHNAKTKPREEQFNSTYRVVSVLTVLHQDWLNGKEYKCKVSNKGLPSSIEKTISKAKGQPREPQVYTLPPSQEEMTKNQVSLTCLVKGFYPSDIAVEWESNGQPENNYKTTPPVLDSDGSFFLYSRLTVDKSRWQEGNVFSCSVMHEALHNHYTQKSLSLSLGK
light: DIQMTQSPSSLSASVGDRVTLTCRASQGVRNALVWYQQKPGKAPERLIYAASILQSGVPSRFSGSGSGTEFTLTIGGLQPEDFATYYCLQHNSYPWTFGQGTKVEIKRTVAAPSVFIFPPSDEQLKSGTASVVCLLNNFYPREAKVQWKVDNALQSGNSQESVTEQDSKDSTYSLSSTLTLSKADYEKHKVYACEVTHQGLSSPVTKSFNRGECARSLIEGPTLRQWLAARAPI

How the values were obtained:
[1] = biological target: Recombinant TPO receptor (R&D Systems); test: BLI (Octet), biotinylated TPO receptor on streptavidin probe, second experiment
[2] = biological target: Recombinant TPO receptor (R&D Systems)

| Molecule | Kd [1] [nM] | Kd [2] [nM] |
| --- | --- | --- |
| recombinant human thrombopoietin (from UniProt P40225 22-353) (ligand) | 3 |  |
| B1 | 3 | 2.32 |
